{"source": "patent US7074560B2", "about": "“Purification of tissue plasminogen activator (tPA)” (Dyax Corp., priority 1996, dated 2006)", "target": "tPA (Homo sapiens, UniProt P00750)", "sequence (P00750 36-562)": "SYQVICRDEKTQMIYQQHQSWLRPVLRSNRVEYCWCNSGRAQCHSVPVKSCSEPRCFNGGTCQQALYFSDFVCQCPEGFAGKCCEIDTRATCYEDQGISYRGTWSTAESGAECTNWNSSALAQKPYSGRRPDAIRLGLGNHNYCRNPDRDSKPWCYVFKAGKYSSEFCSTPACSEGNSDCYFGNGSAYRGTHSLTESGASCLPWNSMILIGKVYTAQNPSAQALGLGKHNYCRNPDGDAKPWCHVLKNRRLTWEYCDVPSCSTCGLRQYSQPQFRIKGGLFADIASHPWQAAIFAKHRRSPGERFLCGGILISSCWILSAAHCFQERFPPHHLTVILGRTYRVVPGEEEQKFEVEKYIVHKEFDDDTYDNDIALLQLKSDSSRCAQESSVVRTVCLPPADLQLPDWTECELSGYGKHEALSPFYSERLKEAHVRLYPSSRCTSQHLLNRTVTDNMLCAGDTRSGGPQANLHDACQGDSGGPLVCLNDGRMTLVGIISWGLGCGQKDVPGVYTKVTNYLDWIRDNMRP", "assay": "15-amino acid segment bound to a chromatographic support: tPA binding", "conditions": "initial studies", "text": "As noted above, almost all of the variegation in amino acid positions used in building the CMTI library occurred between two cyteines at positions 3 and 10 of CMTI-I (see Table 3). In the parental CMTI protein, these cysteines form disulfide bonds with other cysteine residues elsewhere in the protein (see SEQ ID NO: 1), however with the successful isolation of affinity ligands from the CMTI library, a secondary library was conceptualized which was based on variegating a truncated 15-amino acid segment of the isolate #109 (see amino acids 1–15 of SEQ ID NO: 12). If the C3 and C10 cysteines of these members formed a disulfide bond, then a constrained loop having tPA binding properties might be obtained.", "note": "Positions of bridges follow the written chain, without caps; N, C: chain ends. No end group written: not given here.", "data": [{"substance": "15-amino acid segment derived from affinity ligand isolate #109: truncated 15-amino acid segment of isolate #109 (amino acids 1–15 of SEQ ID NO: 12), C3–C10 disulfide loop (RLCPKTDLGCMKDSD; disulfide 3-10)", "values": [{"measurement": "binding of the immobilized C3–C10 loop to tPA", "value": "bound to tPA"}]}]}
